Assay results published in article PMC1266348, “HIV-1 reverse transcriptase mutations that confer decreased in vitro susceptibility to anti-RT DNA aptamer RT1t49 confer cross resistance to other anti-RT aptamers but not to standard RT inhibitors”.

Biological target: HIV-1 RT wild type (HIV-1, UniProt P04585;P04585 588-1147;588-1027)
Assay: competition (inhibition of polymerase activity); 6 mM Mg2+; 24 nM template-primer; 80 mM KCl, 50 mM Tris-Cl pH 8.0, 6 mM MgCl2, 1 mM DTT, 0.1 mg/ml BSA, 24 nM template-primer (16S rRNA/VP200), dNTPs, 25 ng RT per 50 ul, 37 C, 15 min; IC50 of p
Conditions: protein: recombinant; copies: 1;1

B1: RT1t49 (ssDNA)
DNA: ATCCGCCTGATTAGCGATACTCAGAAGGATAAACTGTCCAGAACTTGGA
Q: How did the IC50 turn out when B1 was run?
A: 1.5 ± 0.03 nM
